Test results published in the supplement of paper PMC12042874.
± gives the uncertainty stated by the source.

Assay: amyloid nucleation score (Sup35N fusion, yeast selection) (log enrichment); library NNK2; higher = more nucleation; inactive = no reads after selection
Outline: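 Yeast lacking psi expressed peptides of 20 random codons fused to Sup35N, received 100 μM copper sulfate for 24 hours, and were then grown for 7 days at 30°C on medium lacking adenine and uracil. Illumina sequencing of input and output plasmid inserts provided the reads. Nucleation scores are DiMSum log enrichments of output over input, centred on the mode of non-aggregating sequences. Any sequence with under 100 input reads was excluded.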

| Substance | amyloid nucleation score |
| --- | --- |
| MYCLVYHQIYSDSHA | 3.91 ± 0.05 |
| MYLLFGSLTVYRIHYSVSNT | -1.14 ± 1.1 |
| MYLRYSFLIISCELGDLNSL | inactive |
| MYPIWNQCSSWNEVVLNGCR | 0.159 ± 0.4 |
| MYPRPVYNIKLFLKEVWGQY | 6.933 ± 0.046 |
| MYREGSTVGLYMFPYCKDQS | 0.237 ± 0.4 |
| MYSLSAAFT | inactive |
| MYTSLLVYML | 3.78 ± 0.048 |
| MYYASIIEKYLYRNDLVGVG | 0.269 ± 0.33 |
| NADKVQGMRMNRDWYSWCCL | 5.323 ± 0.038 |
| NADPNCLSK | 0.508 ± 0.57 |
| NAEFIPGYMISVWTSIATIT | 0.359 ± 0.42 |
| NAFLPG | 4.52 ± 0.12 |
| NAFSKSIFKNMTQQKDQLSE | inactive |
| NAGVYLFYMCICYVKYFFYM | -0.87 ± 0.78 |
| NAICPIKVSGFGCLSKR | 0.092 ± 1.1 |
| NAYLFMFFRRGLWFSVLPFV | -1.09 ± 1.1 |
| NAYLVSRVIKLIVLSKWYRY | 0.689 ± 0.57 |
| NCFKECVVPHR | -0.043 ± 0.37 |
| NCFVLVRALTYCLGNSR | 5.18 ± 0.1 |
| NCHMR | -0.19 ± 0.34 |
| NCPSTDFPELMSMQSYCLLC | -1.71 ± 1.1 |
| NCSYNMNKRASSMFHSGCVV | 2.81 ± 0.14 |
| NCTRSSVWNNVVCLESHPSY | -0.035 ± 0.76 |
| NCWRNGCVQLFRWY | 5.15 ± 0.092 |

| Substance | amyloid nucleation score |
| --- | --- |
| NDDKRSRLMRWETSKIRSSV | 3.89 ± 0.052 |
| NDFTFLMFDM | 1.25 ± 0.44 |
| NDGCIGVFFDRMVPDWVTTL | -0.477 ± 0.48 |
| NDGMSSIRWGMTPHYVSSGD | 0.698 ± 0.14 |
| NDHLGVS | 3.69 ± 0.059 |
| NDKVFYGRFSFHHVGHWCRV | -0.506 ± 0.41 |
| NDRHLRWPFCPCYQVRLCIT | inactive |
| NDSRHTVIGYVMFKVYMYLK | inactive |
| NDTCIRLWRWLRAQDSWLGN | 0.668 ± 0.37 |
| NDYLFIFHLFCLVSCLMNKW | -0.228 ± 1.1 |
| NELCRKPLNLGCISSYVFIE | -0.584 ± 0.3 |
| NELVSLQVIWIF | -0.098 ± 0.79 |
| NERFFKILCWLFRRNSFTIE | -2.24 ± 1 |
| NEVDG | 2.28 ± 0.1 |
| NEVVFRVYK | 3.22 ± 0.068 |
| NEWAN | -1.31 ± 0.62 |
| NFAVLYYIFVHIWLQCSNSE | -0.969 ± 0.41 |
| NFFPCACNNGAPIKEDFTCR | 2.84 ± 0.17 |
| NFIFDFVV | -0.03 ± 0.21 |
| NFLADCLDGSANAIWVHVAS | 0.57 ± 0.23 |
| NFMCVSYQAAANSILRVPQS | 1.28 ± 0.11 |
| NFMSYIDKRWYQWLVSDRIS | 5.413 ± 0.047 |
| NFNCYFS | 4.888 ± 0.037 |
| NFNMYGVFCVY | inactive |
| NFPRRSRVLKYCITLSSNHS | -0.158 ± 0.5 |

| Substance | amyloid nucleation score |
| --- | --- |
| NFSFRLYLLLETSIMYIGKT | -1.3 ± 0.38 |
| NFSVNCLYNWARYACFLKGM | 1.77 ± 0.12 |
| NFVILLCKQN | 5.2 ± 0.053 |
| NFYFLIRLKAFSCLRIENWF | 2.28 ± 0.061 |
| NGARKCFIDAHWESAVANPE | 3.2 ± 0.099 |
| NGFMDYQLPLAARVKSSWHL | 2.97 ± 0.076 |
| NGLSRLEVTNH | 0.052 ± 0.49 |
| NGNRSHLELRCGWMSWCDRA | -0.318 ± 0.55 |
| NGNVVADWI | 0.809 ± 0.27 |
| NGSESAYGNSLWLCLLEAAI | inactive |
| NGVGLSVTGKCCKERSIFPP | -0.406 ± 0.5 |
| NHMGIVRVVLMFGSYITLI | -0.174 ± 0.45 |
| NHSMRPNRTVSGMLTSIYYR | -0.533 ± 0.55 |
| NHSTVYLLMEISTGLVISGN | 1.99 ± 0.16 |
| NICSTGPLFWNFLFVV | 1.83 ± 0.15 |
| NIIFLGVGSVFKNWRTTILS | 4.02 ± 0.049 |
| NILMY | -0.46 ± 1 |
| NIQWLLQVDEDFKF | 1.58 ± 0.16 |
| NISFADSCMNFIRYY | 2.4 ± 0.12 |
| NISFGSYILLRFLMRVE | 0.58 ± 0.6 |
| NITDDRMSSWIRFVILVSTV | -0.074 ± 0.56 |
| NITLRSQGIVRGQTFICLFW | -0.354 ± 0.56 |
| NKLPDSFRSALSFY | inactive |
| NKTTFSICDAYDGYREWTDN | -1.17 ± 0.45 |
| NLALFCLVLMMEHQRFPCKA | 4.49 ± 0.072 |

| Substance | amyloid nucleation score |
| --- | --- |
| NLCGCAMVCWVPF | -0.217 ± 0.54 |
| NLGNDGHSELRHYSNL | inactive |
| NLGRAQTSQ | 0.192 ± 0.65 |
| NLGSHTVEFSVMS | 0.152 ± 0.77 |
| NLIESWTVYCIGLGG | inactive |
| NLKKAQFRGMYVAYP | 1.55 ± 0.47 |
| NLLLFWSSHLSNECGSNSLG | 4.66 ± 0.1 |
| NLLLFYPAISVSCVNYTMRV | 7.127 ± 0.052 |
| NLLNKTWFVSILIKHTCMYS | 0.659 ± 0.56 |
| NLMCTACILDQWRHCKLVWN | 4.15 ± 0.091 |
| NLMWTLNLF | 8.253 ± 0.058 |
| NLNDLVVLELYSRFLLNWFE | -0.282 ± 0.46 |
| NLQLVGVMNPDPCESWN | 0.222 ± 0.31 |
| NLRPAFHDMDKQCGG | 0.045 ± 0.63 |
| NLRWPIFNSWSSG | -0.553 ± 0.27 |
| NLSDLLFLQSTSEGLSLFSI | -0.621 ± 0.64 |
| NLWRLISNLIDVMHPMYSTE | -0.089 ± 1.1 |
| NLYTA | 0.49 ± 0.29 |
| NMCQPMCVIVDWIIFISCVG | 2.49 ± 0.063 |
| NMDSGLVMVVLVCDDYMTTT | 0.119 ± 0.61 |
| NMEQFTRSIKSIGKRFTVTV | -0.471 ± 0.76 |
| NMTHEA | -0.219 ± 0.63 |
| NNELDRISRTVCLWWVG | -0.239 ± 0.65 |
| NNHGLRTYIGPYISWLIYFS | 2.53 ± 0.17 |
| NNNKI | inactive |

| Substance | amyloid nucleation score |
| --- | --- |
| NNRQK | 0.63 ± 0.43 |
| NNRWFRRGLGLSLDWTDCLS | -0.492 ± 1.1 |
| NNRWVRKVSDYRVSC | 0.243 ± 0.64 |
| NNSPVSPDGCLLGSSVQYWY | -0.375 ± 1.1 |
| NNSQEFSSYTWMNYLLIVKW | -1.02 ± 1 |
| NNSWQINIYNGVTRLIRVRA | 4.7 ± 0.039 |
| NNSYTGPVSCNHVAGCGTGH | -0.387 ± 1.1 |
| NNYATCNVHCMFMMI | 10.18 ± 0.05 |
| NNYIVTW | 0.233 ± 0.74 |
| NPGGMQDEQEVVIWAPTRFL | -0.161 ± 0.39 |
| NPLQRTVYWFIIKRDCFHSV | -1.46 ± 0.45 |
| NQCISDPNSCSSCALL | inactive |
| NQLIGHVFSFVDKSKSFSSS | 0.243 ± 0.56 |
| NQQPKSLLYVSRRMQGTMIF | 0.089 ± 0.8 |
| NRAVGLLRYTMVMGT | 0.026 ± 1.1 |
| NRCRNNGQLRGQCICGSVCL | -0.284 ± 0.39 |
| NRDKF | -1.07 ± 0.28 |
| NREIMMD | -0.184 ± 1.1 |
| NRETGANCARMPKVNVWEQQ | 0.865 ± 0.25 |
| NRKCSAESMTEGVRPLDSHY | inactive |
| NRKLWVYIFSELSDDGLQFR | inactive |
| NRNLDGFLPWNVHEAVGL | -0.003 ± 0.42 |
| NRNQRSVDRCGFSWYGTQIG | 1.3 ± 0.32 |
| NRPMEGRLKWSMTVLIVSLY | -0.187 ± 0.65 |
| NRSLGNHAEYNHASRLKGDS | -0.658 ± 0.31 |

| Substance | amyloid nucleation score |
| --- | --- |
| NRTCVLSNPFPFPHNIPGVC | -0.815 ± 0.54 |
| NRWAYGVFWHSWFIKSHFG | 0.14 ± 1 |
| NRWMRGDTVWNVGWWSPNWG | 0.173 ± 0.46 |
| NSELLFLGVEWNRT | -0.142 ± 0.79 |
| NSFYRCYVRCIVSVRFLCCH | 5.008 ± 0.035 |
| NSHFALDGKSW | -0.711 ± 0.39 |
| NSNLLNTLFWVVT | 4.03 ± 0.13 |
| NSNTKTSPIISW | inactive |
| NSRLLVDGHFIRTFRAFWVN | -1.12 ± 0.56 |
| NSSEINHSKG | -0.788 ± 1.1 |
| NSSTTHAGLVYYYSGKGPRV | inactive |
| NSSVCVRNRCGVWIDLKGII | 5.06 ± 0.095 |
| NSSYTVGHGPDT | inactive |
| NSTKTRLSSDTTLDFLEATR | -0.299 ± 0.27 |
| NSVFAGRRTRTSFP | 0.227 ± 0.62 |
| NSVFFY | -1.63 ± 1.1 |
| NSVLVLAWWVNANCGLREGG | 5.454 ± 0.041 |
| NSVTNNIRSWIPHLDKGYGG | -0.487 ± 1.1 |
| NSWASPTVVFIRPVHMLLVL | 0.158 ± 0.25 |
| NSYFGRAFNVSMPYKLRWKF | -1.41 ± 1.1 |
| NTEFIFQELRVMSHEVCIHI | inactive |
| NTELSVMPGRLSNFIKLNVT | -0.248 ± 0.65 |
| NTGSLRYWHCVSSGNSTTGR | inactive |
| NTGSLWG | -1.41 ± 1.1 |
| NTLRMIPADFPSGRLEQTKV | 0.552 ± 0.4 |

| Substance | amyloid nucleation score |
| --- | --- |
| NTLSPFQIEFGGWLMGVLFK | 0.611 ± 0.81 |
| NTMLAFAKKSRMHFSLLLLV | -0.022 ± 0.37 |
| NTNAHVRMVDLVSGCASQWL | 1.75 ± 0.3 |
| NTRCRSVTLMLGFSMESKVH | 0.76 ± 0.54 |
| NTSHGFQSNPRGAYERILCV | -0.961 ± 0.63 |
| NTWYLTKADLDRVGAVMVQT | inactive |
| NVFFSFSMYKDAYNE | -0.937 ± 0.54 |
| NVFLLSVREMSSFLRTTTLG | 1.24 ± 0.17 |
| NVFLRPSFRGVHK | 2.05 ± 0.092 |
| NVFVCPAFQRTWVWMAVMSW | inactive |
| NVHRRMSEYVCVDRWEEWVR | 0.811 ± 0.67 |
| NVITRGM | 0.899 ± 0.38 |
| NVKICFCSVMSSTCRYNRT | 7.878 ± 0.064 |
| NVLRMMC | -0.286 ± 0.27 |
| NVMKSLFGRC | 0.359 ± 0.48 |
| NVNMVMNNSGKSRLCISENY | -0.19 ± 1 |
| NVQALMN | 0.012 ± 0.74 |
| NVVSEEIMVCIVVSDLKRFR | 0.619 ± 0.29 |
| NWASKTFYGSYGSRYCQFGE | 1.07 ± 0.59 |
| NWIPYVWGWIALIVGSDF | -0.158 ± 0.55 |
| NWLSMWLWFVCMSLVCMVFR | 1.77 ± 0.16 |
